Data taken from the supplement of paper PMC7125110.
± gives the standard error. This sample holds only a part of the variants without activity.

B1: glmS ribozyme (parent)
chain: AUAAAAGCGCCAGAACUACAGAAAUGUAGUUGACGAGGAGGAGGUUUAUCGAAUUUUCGGCGGAUGCCUCCAAA

Assays:
Settings in all cases: with glucosamine-6-phosphate
[1] = variants of: B1; assay: self-cleavage kobs at 40 uM GlcN6P; higher = faster cleavage; RNA array
How it was run: (§1)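 Tiles of sequenced MiSeq chips were imaged over ~14 h at 37 °C. On them, barcoded ribozyme variants had been transcribed in situ by E. coli RNA polymerase and were tracked via a hybridised Cy3 probe while glucosamine-6-phosphate (40 μM to 10 mM) in HEPES/KCl/Mg(OAc)2 buffer flowed in. Per-tile medians, normalised to baseline and to non-cleaving reference variants, were fit to one- or two-exponential decays for kobs, and weighted Michaelis–Menten fits gave kcat and KM.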

[2] = variants of: B1; assay: self-cleavage kobs at 10000 uM GlcN6P; higher = faster cleavage; RNA array
How it was run: as §1

[3] = variants of: B1; assay: self-cleavage kobs at 640 uM GlcN6P; higher = faster cleavage; RNA array
How it was run: as §1

[4] = variants of: B1; assay: self-cleavage kobs at 2500 uM GlcN6P; higher = faster cleavage; RNA array
How it was run: as §1

[5] = variants of: B1; assay: self-cleavage kobs at 160 uM GlcN6P; higher = faster cleavage; RNA array
How it was run: as §1

Row | Variant | self-cleavage kobs at 40 uM GlcN6P [1] | self-cleavage kobs at 10000 uM GlcN6P [2] | self-cleavage kobs at 640 uM GlcN6P [3] | self-cleavage kobs at 2500 uM GlcN6P [4] | self-cleavage kobs at 160 uM GlcN6P [5]
1 | G29A G59U G63A A64U | < 1e-05 s⁻¹ | < 1e-05 s⁻¹ |  |  | 
2 | G40A U57G | < 1e-05 s⁻¹ |  | < 1e-05 s⁻¹ | < 1e-05 s⁻¹ | 
3 | C68A | < 1e-05 s⁻¹ | 0.000447 ± 7.5e-05 s⁻¹ | 0.000539 ± 0.00015 s⁻¹ | 0.000102 ± 4.6e-05 s⁻¹ | 5.51e-05 ± 1.8e-05 s⁻¹
4 | U45G U57C | < 1e-05 s⁻¹ | 7.89e-05 ± 9.7e-06 s⁻¹ |  | 3.94e-05 ± 1.4e-05 s⁻¹ | < 1e-05 s⁻¹
5 | C11U C16A G44C | < 1e-05 s⁻¹ |  | < 1e-05 s⁻¹ |  | 
6 | G13C A36C C71G | < 1e-05 s⁻¹ |  | < 1e-05 s⁻¹ |  | 
7 | C16A G37U G43U U57C | < 1e-05 s⁻¹ | < 1e-05 s⁻¹ | < 1e-05 s⁻¹ |  | 
8 | C11G A48G | < 1e-05 s⁻¹ | < 1e-05 s⁻¹ | < 1e-05 s⁻¹ | < 1e-05 s⁻¹ | < 1e-05 s⁻¹
9 | A14C G60U C71G | < 1e-05 s⁻¹ | < 1e-05 s⁻¹ |  |  | 
10 | U31C C34U U65C | < 1e-05 s⁻¹ | < 1e-05 s⁻¹ |  | < 1e-05 s⁻¹ | 
11 | G13A U46G G59U C70U | < 1e-05 s⁻¹ |  |  | < 1e-05 s⁻¹ | 
12 | G29A C34A G40U G41C G44U U49G C50A C71U | < 1e-05 s⁻¹ | < 1e-05 s⁻¹ |  |  | 
13 | C34G G41A G44U A53U | < 1e-05 s⁻¹ | < 1e-05 s⁻¹ |  |  | 
14 | U30C A36C U69G | 0.000181 ± 7.1e-05 s⁻¹ |  | 0.000264 ± 0.00013 s⁻¹ |  | 
15 | G41A C58G | < 1e-05 s⁻¹ | < 1e-05 s⁻¹ | < 1e-05 s⁻¹ | < 1e-05 s⁻¹ | < 1e-05 s⁻¹
16 | G41A U69A | < 1e-05 s⁻¹ |  | < 1e-05 s⁻¹ |  | 
17 | C8A G66C | < 1e-05 s⁻¹ |  |  | < 1e-05 s⁻¹ | 
18 | A36C G41A | < 1e-05 s⁻¹ | < 1e-05 s⁻¹ | < 1e-05 s⁻¹ | < 1e-05 s⁻¹ | < 1e-05 s⁻¹
19 | U30G C70U | 0.000299 ± 3.2e-05 s⁻¹ | 0.00516 ± 0.00081 s⁻¹ | 0.00108 ± 0.00014 s⁻¹ | 0.00367 ± 0.00096 s⁻¹ | 0.000471 ± 8.6e-05 s⁻¹
20 | C8G A12C U31C G32C | < 1e-05 s⁻¹ |  |  |  | 
21 | C16A C34U | < 1e-05 s⁻¹ |  | < 1e-05 s⁻¹ | < 1e-05 s⁻¹ | < 1e-05 s⁻¹
22 | G9U C11G | < 1e-05 s⁻¹ | < 1e-05 s⁻¹ |  | < 1e-05 s⁻¹ | 
23 | C34A A42G | < 1e-05 s⁻¹ |  | < 1e-05 s⁻¹ | < 1e-05 s⁻¹ | < 1e-05 s⁻¹
24 | A15G G29U U56G G63A | < 1e-05 s⁻¹ |  |  |  | 

Row | Variant | self-cleavage kobs at 40 uM GlcN6P [1] | self-cleavage kobs at 10000 uM GlcN6P [2] | self-cleavage kobs at 640 uM GlcN6P [3] | self-cleavage kobs at 2500 uM GlcN6P [4] | self-cleavage kobs at 160 uM GlcN6P [5]
25 | G9C G66A | < 1e-05 s⁻¹ | < 1e-05 s⁻¹ | < 1e-05 s⁻¹ |  | 
26 | A14G G35U G37U G44U C71U | < 1e-05 s⁻¹ |  |  | < 1e-05 s⁻¹ | 
27 | A6U G13C G63U A64G | < 1e-05 s⁻¹ |  |  |  | 
28 | A12U A14G | 0.00336 ± 0.00044 s⁻¹ |  | 0.0265 ± 0.0078 s⁻¹ |  | 0.00737 ± 0.0027 s⁻¹
29 | G13C U45C | < 1e-05 s⁻¹ |  | < 1e-05 s⁻¹ | < 1e-05 s⁻¹ | < 1e-05 s⁻¹
30 | C34U C50G A53U C68G | 8.23e-05 ± 1.6e-05 s⁻¹ | 0.000111 ± 1.6e-05 s⁻¹ | 0.000541 ± 0.00016 s⁻¹ |  | 
31 | G32A C61G | < 1e-05 s⁻¹ |  |  |  | 
32 | G40U U49C | < 1e-05 s⁻¹ | < 1e-05 s⁻¹ | < 1e-05 s⁻¹ |  | < 1e-05 s⁻¹
33 | A14C G35U C70U | < 1e-05 s⁻¹ | < 1e-05 s⁻¹ |  |  | 
34 | G32C A36G C61U U69A | < 1e-05 s⁻¹ |  |  |  | 
35 | A14C G35U | < 1e-05 s⁻¹ | < 1e-05 s⁻¹ |  | < 1e-05 s⁻¹ | < 1e-05 s⁻¹
36 | G35U G41U | < 1e-05 s⁻¹ | < 1e-05 s⁻¹ |  | < 1e-05 s⁻¹ | < 1e-05 s⁻¹
37 | G51A U55G C68G | < 1e-05 s⁻¹ | < 1e-05 s⁻¹ |  |  | 
38 | C34U U57C | < 1e-05 s⁻¹ | < 1e-05 s⁻¹ | < 1e-05 s⁻¹ | < 1e-05 s⁻¹ | < 1e-05 s⁻¹
39 | C10U G40U U49A | < 1e-05 s⁻¹ |  | < 1e-05 s⁻¹ |  | 
40 | U30G G41U C68A | < 1e-05 s⁻¹ | < 1e-05 s⁻¹ |  |  | 
41 | G35U A53U C61G C68G | 0.000579 ± 0.00022 s⁻¹ | 0.000516 ± 0.0002 s⁻¹ |  |  | 
42 | G44U A52G A53U | < 1e-05 s⁻¹ | < 1e-05 s⁻¹ |  |  | 
43 | C19U G38A | < 1e-05 s⁻¹ |  |  |  | 
44 | A39G G40C C67U | < 1e-05 s⁻¹ | < 1e-05 s⁻¹ |  | < 1e-05 s⁻¹ | 
45 | C16A A42U G63U | < 1e-05 s⁻¹ |  | < 1e-05 s⁻¹ | < 1e-05 s⁻¹ | 
46 | A36G C50G | 3.66e-05 ± 1.5e-05 s⁻¹ |  |  |  | 
47 | C10A C61U | < 1e-05 s⁻¹ |  |  | < 1e-05 s⁻¹ | 
